From patent US20170173107A1 (University of Pennsylvania, published 2017)
Positions of bridges follow the written chain, without caps; N, C: chain ends. Non-standard residues stand in square brackets, D forms with d. *: point of attachment. ABM1 = 3-(naphthalene-2-sulfonamido)propanoic acid albumin-binding tag, amide-linked to N-terminus, O=C(CCNS(=O)(=O)c1ccc2ccccc2c1)*; ABM2 = diphenyl-cyclohexanol phosphate ester hexanoic acid tag; Trp(1-Me) = Cn1cc(C[C@H](N)C(=O)O)c2ccccc21; NMeI = CC[C@H](C)[C@H](NC)C(=O)O; Sar = CNCC(=O)O

B1: ABM2-Cp20-miniPEG-Lys(biotin) (peptide)
peptide: ICVWQDWGAHRCIK
modifications: not fully specified; ABM2 amide-linked to the N-terminus; Trp(Me) at position 4; Sar at position 8; mIle at position 13; disulfide Cys2-Cys12; miniPEG (AEEEA) spacer between mIle13 and the C-terminal Lys; biotin on the Lys side chain; made on Rink amide resin (C-terminal amide)
notes: Captured on streptavidin-coated CM5 chip at about 100 RU; also called biotinylated ABM2-Cp20; immobilized ABM2-Cp20
B2: ABM2-Cp20 (ABM2-Ile-[Cys-Val-Trp(Me)-Gln-Asp-Trp-Sar-Ala-His-Arg-Cys]-mIle-NH2) (peptide)
peptide: ABM2-ICVWQDW[Sar]AHRC[NMeI]-NH2
modifications: disulfide 2-12; not fully specified (residue 4); printed as ABM2-Ile-[Cys-Val-Trp(Me)-Gln-Asp-Trp-Sar-Ala-His-Arg-Cys]-mIle-NH2
notes: also called ABM2-Compstatin 20
B3: Cp20 (Ac-Ile-[Cys-Val-Trp(Me)-Gln-Asp-Trp-Sar-Ala-His-Arg-Cys]-mIle-NH2) (peptide)
peptide: Ac-ICV[Trp(1-Me)]QDW[Sar]AHRC[NMeI]-NH2
modifications: disulfide 2-12
SMILES: CC[C@H](C)[C@H](NC(C)=O)C(=O)N[C@H]1CSSC[C@@H](C(=O)N(C)[C@H](C(N)=O)[C@@H](C)CC)NC(=O)[C@H](CCCNC(=N)N)NC(=O)[C@H](Cc2c[nH]cn2)NC(=O)[C@H](C)NC(=O)CN(C)C(=O)[C@H](Cc2c[nH]c3ccccc23)NC(=O)[C@H](CC(=O)O)NC(=O)[C@H](CCC(N)=O)NC(=O)[C@H](Cc2cn(C)c3ccccc23)NC(=O)[C@H](C(C)C)NC1=O
notes: Synthetic cyclic 13-residue peptide; also called compstatin analog Cp20; C20
B4: ABM1-Cp20 (peptide)
peptide: ABM1-ICV[Trp(1-Me)]QDW[Sar]AHRC[NMeI]-NH2
modifications: disulfide 2-12
SMILES: CC[C@H](C)[C@H](NC(=O)CCNS(=O)(=O)c1ccc2ccccc2c1)C(=O)N[C@H]1CSSC[C@@H](C(=O)N(C)[C@H](C(N)=O)[C@@H](C)CC)NC(=O)[C@H](CCCNC(=N)N)NC(=O)[C@H](Cc2c[nH]cn2)NC(=O)[C@H](C)NC(=O)CN(C)C(=O)[C@H](Cc2c[nH]c3ccccc23)NC(=O)[C@H](CC(=O)O)NC(=O)[C@H](CCC(N)=O)NC(=O)[C@H](Cc2cn(C)c3ccccc23)NC(=O)[C@H](C(C)C)NC1=O
notes: also called ABMT-Cp20 (misprint of ABM1 in the text)

Experiments:
baboon albumin = baboon albumin (baboon); assay: SPR, albumin (6.3-100 µM) over immobilized biotinylated ABM2-Cp20; apparent affinity (KD app) from steady state, single-binding-site model
From the text: 1.2 Interaction of ABM-Compstatin conjugates with albumin.
To confirm the albumin-directed activity of the ABM-compstatin conjugates and further explore their simultaneous binding to C3 and albumin, we performed additional SPR binding studies. […] The biotinylated peptides were immobilized on a streptavidin-coated SPR sensor chip, and the interactions with albumins from different species (human, baboon, bovine, rabbit and mouse) were characterized (Table 3; FIG. 2).

complement component C3 = complement component C3 (human, UniProt P01024 672-1663); assay: cell-based or functional assay
Chain of complement component C3 (P01024 23-665 P314L limits assumed, chain 1 of 2): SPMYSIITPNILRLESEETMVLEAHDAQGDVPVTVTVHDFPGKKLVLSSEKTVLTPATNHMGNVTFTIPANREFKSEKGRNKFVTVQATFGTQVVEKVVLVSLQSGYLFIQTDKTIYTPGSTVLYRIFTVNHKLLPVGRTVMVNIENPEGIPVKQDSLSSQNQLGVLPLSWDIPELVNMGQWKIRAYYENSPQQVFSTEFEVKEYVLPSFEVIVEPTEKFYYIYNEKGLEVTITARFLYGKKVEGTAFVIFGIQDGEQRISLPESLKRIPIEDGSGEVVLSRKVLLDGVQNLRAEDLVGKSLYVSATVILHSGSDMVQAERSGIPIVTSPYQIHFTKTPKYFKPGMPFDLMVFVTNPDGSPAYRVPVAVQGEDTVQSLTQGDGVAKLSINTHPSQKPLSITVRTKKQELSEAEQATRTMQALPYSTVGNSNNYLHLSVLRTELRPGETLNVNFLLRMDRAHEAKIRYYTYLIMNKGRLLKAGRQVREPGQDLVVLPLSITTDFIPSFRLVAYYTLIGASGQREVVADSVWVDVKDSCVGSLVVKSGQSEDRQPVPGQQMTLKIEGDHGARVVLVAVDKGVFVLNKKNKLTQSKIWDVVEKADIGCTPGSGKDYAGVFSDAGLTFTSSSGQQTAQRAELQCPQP
Chain of complement component C3 (P01024 672-1663 limits assumed, chain 2 of 2): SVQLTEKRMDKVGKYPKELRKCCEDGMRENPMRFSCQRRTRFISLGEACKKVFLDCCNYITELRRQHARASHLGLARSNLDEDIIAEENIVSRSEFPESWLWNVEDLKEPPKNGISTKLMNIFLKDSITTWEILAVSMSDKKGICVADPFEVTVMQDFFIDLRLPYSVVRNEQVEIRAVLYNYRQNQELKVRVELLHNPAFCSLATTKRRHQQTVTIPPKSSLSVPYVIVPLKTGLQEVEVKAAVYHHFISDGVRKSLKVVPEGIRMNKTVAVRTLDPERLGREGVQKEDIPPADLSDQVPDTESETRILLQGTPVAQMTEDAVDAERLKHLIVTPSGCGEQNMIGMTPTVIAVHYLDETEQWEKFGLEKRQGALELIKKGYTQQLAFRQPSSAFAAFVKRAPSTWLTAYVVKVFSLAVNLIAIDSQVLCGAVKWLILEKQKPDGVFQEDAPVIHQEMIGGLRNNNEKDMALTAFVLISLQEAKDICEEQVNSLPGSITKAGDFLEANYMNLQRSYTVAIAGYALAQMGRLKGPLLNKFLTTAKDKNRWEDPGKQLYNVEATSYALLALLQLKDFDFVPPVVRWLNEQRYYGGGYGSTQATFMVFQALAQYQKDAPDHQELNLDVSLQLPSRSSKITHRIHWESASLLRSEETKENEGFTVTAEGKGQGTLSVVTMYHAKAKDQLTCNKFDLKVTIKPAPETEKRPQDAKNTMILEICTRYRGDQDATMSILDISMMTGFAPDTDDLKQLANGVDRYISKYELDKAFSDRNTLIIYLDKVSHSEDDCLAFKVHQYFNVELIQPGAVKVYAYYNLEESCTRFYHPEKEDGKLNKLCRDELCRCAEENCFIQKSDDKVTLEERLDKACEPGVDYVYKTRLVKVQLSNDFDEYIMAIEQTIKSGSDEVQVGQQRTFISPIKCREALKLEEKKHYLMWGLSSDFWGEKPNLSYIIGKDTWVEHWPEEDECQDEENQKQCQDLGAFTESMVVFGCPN

[1] = target: T1, C3b (biotinylated, captured on a streptavidin sensor chip) (UniProt P01024 749-1663, biotinylated (site not stated)); assay: SPR (Biacore 3000), single-cycle kinetics, peptide over captured biotinylated C3b, 1:1 model, 25 °C
T1 construct: range 727-1641; also called site-specifically immobilized C3b
T1 sequence (P01024 23-665 P314L limits assumed, chain 1 of 2): as the sequence (P01024 23-665 P314L limits assumed, chain 1 of 2) above
T1 sequence (P01024 749-1663 limits assumed, chain 2 of 2): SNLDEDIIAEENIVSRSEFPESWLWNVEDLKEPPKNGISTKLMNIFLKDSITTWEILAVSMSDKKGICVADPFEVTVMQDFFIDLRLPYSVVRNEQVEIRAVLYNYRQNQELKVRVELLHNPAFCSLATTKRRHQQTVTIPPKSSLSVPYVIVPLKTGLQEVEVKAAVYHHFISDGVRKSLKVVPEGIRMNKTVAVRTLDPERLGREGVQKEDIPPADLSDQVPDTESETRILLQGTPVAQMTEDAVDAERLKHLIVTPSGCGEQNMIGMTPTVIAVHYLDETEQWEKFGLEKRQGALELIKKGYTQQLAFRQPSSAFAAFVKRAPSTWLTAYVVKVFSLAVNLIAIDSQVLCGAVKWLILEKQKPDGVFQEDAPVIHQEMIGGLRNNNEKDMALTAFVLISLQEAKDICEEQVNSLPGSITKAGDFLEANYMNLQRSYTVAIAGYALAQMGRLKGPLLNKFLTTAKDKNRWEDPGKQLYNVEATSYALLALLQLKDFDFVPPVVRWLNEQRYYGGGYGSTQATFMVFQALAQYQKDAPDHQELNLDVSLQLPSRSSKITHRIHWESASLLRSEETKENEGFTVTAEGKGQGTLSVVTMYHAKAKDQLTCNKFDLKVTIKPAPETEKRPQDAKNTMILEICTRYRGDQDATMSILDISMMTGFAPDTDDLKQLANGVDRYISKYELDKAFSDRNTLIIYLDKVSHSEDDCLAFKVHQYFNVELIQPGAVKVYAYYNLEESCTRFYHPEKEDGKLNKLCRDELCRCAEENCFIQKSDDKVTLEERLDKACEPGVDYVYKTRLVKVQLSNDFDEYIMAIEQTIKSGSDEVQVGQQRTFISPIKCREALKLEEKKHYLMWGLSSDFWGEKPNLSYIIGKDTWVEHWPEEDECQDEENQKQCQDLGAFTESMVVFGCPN
Method: 1.1 Interaction of Compstatin analogues with C3b. […] Individual injections within a cycle were 2 min long with a 5-min dissociation between injections. After the end of the last injection, a 40-min dissociation time was allowed. […] The kinetic evaluation was performed in BiaEvaluation using a single cycle kinetic template (kindly provided by GE Healthcare) by globally fitting each data set to a 1:1 Langmuir binding model to achieve association and dissociation rates (kₐ and kd, respectively); the equilibrium dissociation constant (KD) was calculated from the equation KD=kd/kₐ (FIG. 1). Each assay was performed at least twice.
^aSingle-cycle kinetic analysis of compstatin conjugates was performed. Sets of five increasing concentrations were consecutively injected over a C3b surface (3000-5000 RU density) in a single cycle. The processed signals were fitted to a 1:1 binding model.

Binder	Kd (baboon albumin)	IC50 (µM), inhibition of immune complex-induced (classical pathway) complement activation in human plasma, ELISA (complement component C3)	Kd [1]	koff [1]	kon [1]
B1	106000 nM	–	–	–	–
B2	–	0.17 µM	–	–	–
B3	–	0.26 µM	2.9 nM	0.0067 s⁻¹	2.3e+06 M⁻¹ s⁻¹
B4	–	0.2 µM	–	–	–
